*1 amine or outer side, *2 acyl side, *3 side chain or, on linkers, in order; H or OH if unused. Where no end group is shown, it is not given here. Side-chain parts run from the residue outwards. [ ]: non-standard residue; d: D form. The star is where a group is joined. C16 diacid = O=C(O)CCCCCCCCCCCCCCC(=O)*; γGlu = O=C(O)[C@H](CCC(=O)[*:2])N[*:1]; Palmitoyl = CCCCCCCCCCCCCCCC(=O)*; Decanoyl = CCCCCCCCCC(=O)*; Aib = CC(C)(N)C(=O)O
T1: human glucose-dependent insulinotropic polypeptide receptor (human, UniProt P48546 22-466)
T1 sequence (looked up): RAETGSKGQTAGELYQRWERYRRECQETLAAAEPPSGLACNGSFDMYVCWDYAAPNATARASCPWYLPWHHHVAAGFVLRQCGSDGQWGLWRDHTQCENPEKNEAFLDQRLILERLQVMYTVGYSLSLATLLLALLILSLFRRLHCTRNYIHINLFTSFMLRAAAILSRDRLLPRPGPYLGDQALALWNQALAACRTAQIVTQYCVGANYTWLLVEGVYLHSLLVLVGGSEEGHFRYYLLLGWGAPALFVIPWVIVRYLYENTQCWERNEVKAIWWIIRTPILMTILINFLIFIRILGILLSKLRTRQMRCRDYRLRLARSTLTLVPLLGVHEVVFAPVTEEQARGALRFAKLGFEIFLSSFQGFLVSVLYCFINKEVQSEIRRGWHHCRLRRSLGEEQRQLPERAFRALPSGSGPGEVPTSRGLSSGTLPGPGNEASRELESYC

T2: human glucagon-like peptide-2 receptor (human, UniProt O95838 1-553)
T2 sequence (looked up): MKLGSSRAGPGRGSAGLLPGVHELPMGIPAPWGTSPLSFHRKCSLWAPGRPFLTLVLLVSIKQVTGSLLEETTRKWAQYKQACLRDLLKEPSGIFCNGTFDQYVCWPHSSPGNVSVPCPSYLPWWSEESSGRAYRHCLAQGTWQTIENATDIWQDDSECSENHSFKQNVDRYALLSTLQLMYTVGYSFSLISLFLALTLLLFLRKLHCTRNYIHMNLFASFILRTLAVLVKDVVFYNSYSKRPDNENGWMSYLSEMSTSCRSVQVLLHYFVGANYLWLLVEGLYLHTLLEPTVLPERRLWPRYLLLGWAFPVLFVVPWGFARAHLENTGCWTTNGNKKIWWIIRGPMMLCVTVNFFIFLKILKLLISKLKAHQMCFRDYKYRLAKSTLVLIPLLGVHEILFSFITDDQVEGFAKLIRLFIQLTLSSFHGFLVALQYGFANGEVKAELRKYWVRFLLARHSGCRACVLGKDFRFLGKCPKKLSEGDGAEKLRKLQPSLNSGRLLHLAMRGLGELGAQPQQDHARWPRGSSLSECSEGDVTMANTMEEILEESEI

B1: Compound no. 5 (peptide)
peptide: Palmitoyl-H[Aib]DGTFISDYST[Aib]LDNLAARDFINWLIQTKITK-OH
SMILES: CCCCCCCCCCCCCCCC(=O)N[C@@H](Cc1c[nH]cn1)C(=O)NC(C)(C)C(=O)N[C@@H](CC(=O)O)C(=O)NCC(=O)N[C@H](C(=O)N[C@@H](Cc1ccccc1)C(=O)N[C@H](C(=O)N[C@@H](CO)C(=O)N[C@@H](CC(=O)O)C(=O)N[C@@H](Cc1ccc(O)cc1)C(=O)N[C@@H](CO)C(=O)N[C@H](C(=O)NC(C)(C)C(=O)N[C@@H](CC(C)C)C(=O)N[C@@H](CC(=O)O)C(=O)N[C@@H](CC(N)=O)C(=O)N[C@@H](CC(C)C)C(=O)N[C@@H](C)C(=O)N[C@@H](C)C(=O)N[C@@H](CCCNC(=N)N)C(=O)N[C@@H](CC(=O)O)C(=O)N[C@@H](Cc1ccccc1)C(=O)N[C@H](C(=O)N[C@@H](CC(N)=O)C(=O)N[C@@H](Cc1c[nH]c2ccccc12)C(=O)N[C@@H](CC(C)C)C(=O)N[C@H](C(=O)N[C@@H](CCC(N)=O)C(=O)N[C@H](C(=O)N[C@@H](CCCCN)C(=O)N[C@H](C(=O)N[C@H](C(=O)N[C@@H](CCCCN)C(=O)O)[C@@H](C)O)[C@@H](C)CC)[C@@H](C)O)[C@@H](C)CC)[C@@H](C)CC)[C@@H](C)O)[C@@H](C)CC)[C@@H](C)O
B2: Compound no. 6 (peptide)
peptide: Palmitoyl-H[Aib]DGTFISDYSTILD[Aib]LAARDFINWLIQTKITK-OH
SMILES: CCCCCCCCCCCCCCCC(=O)N[C@@H](Cc1c[nH]cn1)C(=O)NC(C)(C)C(=O)N[C@@H](CC(=O)O)C(=O)NCC(=O)N[C@H](C(=O)N[C@@H](Cc1ccccc1)C(=O)N[C@H](C(=O)N[C@@H](CO)C(=O)N[C@@H](CC(=O)O)C(=O)N[C@@H](Cc1ccc(O)cc1)C(=O)N[C@@H](CO)C(=O)N[C@H](C(=O)N[C@H](C(=O)N[C@@H](CC(C)C)C(=O)N[C@@H](CC(=O)O)C(=O)NC(C)(C)C(=O)N[C@@H](CC(C)C)C(=O)N[C@@H](C)C(=O)N[C@@H](C)C(=O)N[C@@H](CCCNC(=N)N)C(=O)N[C@@H](CC(=O)O)C(=O)N[C@@H](Cc1ccccc1)C(=O)N[C@H](C(=O)N[C@@H](CC(N)=O)C(=O)N[C@@H](Cc1c[nH]c2ccccc12)C(=O)N[C@@H](CC(C)C)C(=O)N[C@H](C(=O)N[C@@H](CCC(N)=O)C(=O)N[C@H](C(=O)N[C@@H](CCCCN)C(=O)N[C@H](C(=O)N[C@H](C(=O)N[C@@H](CCCCN)C(=O)O)[C@@H](C)O)[C@@H](C)CC)[C@@H](C)O)[C@@H](C)CC)[C@@H](C)CC)[C@@H](C)CC)[C@@H](C)O)[C@@H](C)CC)[C@@H](C)O
B3: Compound no. 9 (peptide)
peptide: H-H[Aib]DGK([γGlu-Palmitoyl])FISDYSTILDNLAARDFINWLIQTKITK-OH
SMILES: CCCCCCCCCCCCCCCC(=O)N[C@@H](CCC(=O)NCCCC[C@H](NC(=O)CNC(=O)[C@H](CC(=O)O)NC(=O)C(C)(C)NC(=O)[C@@H](N)Cc1c[nH]cn1)C(=O)N[C@@H](Cc1ccccc1)C(=O)N[C@H](C(=O)N[C@@H](CO)C(=O)N[C@@H](CC(=O)O)C(=O)N[C@@H](Cc1ccc(O)cc1)C(=O)N[C@@H](CO)C(=O)N[C@H](C(=O)N[C@H](C(=O)N[C@@H](CC(C)C)C(=O)N[C@@H](CC(=O)O)C(=O)N[C@@H](CC(N)=O)C(=O)N[C@@H](CC(C)C)C(=O)N[C@@H](C)C(=O)N[C@@H](C)C(=O)N[C@@H](CCCNC(=N)N)C(=O)N[C@@H](CC(=O)O)C(=O)N[C@@H](Cc1ccccc1)C(=O)N[C@H](C(=O)N[C@@H](CC(N)=O)C(=O)N[C@@H](Cc1c[nH]c2ccccc12)C(=O)N[C@@H](CC(C)C)C(=O)N[C@H](C(=O)N[C@@H](CCC(N)=O)C(=O)N[C@H](C(=O)N[C@@H](CCCCN)C(=O)N[C@H](C(=O)N[C@H](C(=O)N[C@@H](CCCCN)C(=O)O)[C@@H](C)O)[C@@H](C)CC)[C@@H](C)O)[C@@H](C)CC)[C@@H](C)CC)[C@@H](C)CC)[C@@H](C)O)[C@@H](C)CC)C(=O)O
B4: Compound no. 10 (peptide)
peptide: H-H[Aib]DGTFK([γGlu-Palmitoyl])SDYSTILDNLAARDFINWLIQTKITK-OH
SMILES: CCCCCCCCCCCCCCCC(=O)N[C@@H](CCC(=O)NCCCC[C@H](NC(=O)[C@H](Cc1ccccc1)NC(=O)[C@@H](NC(=O)CNC(=O)[C@H](CC(=O)O)NC(=O)C(C)(C)NC(=O)[C@@H](N)Cc1c[nH]cn1)[C@@H](C)O)C(=O)N[C@@H](CO)C(=O)N[C@@H](CC(=O)O)C(=O)N[C@@H](Cc1ccc(O)cc1)C(=O)N[C@@H](CO)C(=O)N[C@H](C(=O)N[C@H](C(=O)N[C@@H](CC(C)C)C(=O)N[C@@H](CC(=O)O)C(=O)N[C@@H](CC(N)=O)C(=O)N[C@@H](CC(C)C)C(=O)N[C@@H](C)C(=O)N[C@@H](C)C(=O)N[C@@H](CCCNC(=N)N)C(=O)N[C@@H](CC(=O)O)C(=O)N[C@@H](Cc1ccccc1)C(=O)N[C@H](C(=O)N[C@@H](CC(N)=O)C(=O)N[C@@H](Cc1c[nH]c2ccccc12)C(=O)N[C@@H](CC(C)C)C(=O)N[C@H](C(=O)N[C@@H](CCC(N)=O)C(=O)N[C@H](C(=O)N[C@@H](CCCCN)C(=O)N[C@H](C(=O)N[C@H](C(=O)N[C@@H](CCCCN)C(=O)O)[C@@H](C)O)[C@@H](C)CC)[C@@H](C)O)[C@@H](C)CC)[C@@H](C)CC)[C@@H](C)CC)[C@@H](C)O)C(=O)O
B5: Compound no. 13 (peptide)
peptide: H-H[Aib]DGTFISDYSTILK([γGlu-Palmitoyl])NLAARDFINWLIQTKITK-OH
SMILES: CCCCCCCCCCCCCCCC(=O)N[C@@H](CCC(=O)NCCCC[C@H](NC(=O)[C@H](CC(C)C)NC(=O)[C@@H](NC(=O)[C@@H](NC(=O)[C@H](CO)NC(=O)[C@H](Cc1ccc(O)cc1)NC(=O)[C@H](CC(=O)O)NC(=O)[C@H](CO)NC(=O)[C@@H](NC(=O)[C@H](Cc1ccccc1)NC(=O)[C@@H](NC(=O)CNC(=O)[C@H](CC(=O)O)NC(=O)C(C)(C)NC(=O)[C@@H](N)Cc1c[nH]cn1)[C@@H](C)O)[C@@H](C)CC)[C@@H](C)O)[C@@H](C)CC)C(=O)N[C@@H](CC(N)=O)C(=O)N[C@@H](CC(C)C)C(=O)N[C@@H](C)C(=O)N[C@@H](C)C(=O)N[C@@H](CCCNC(=N)N)C(=O)N[C@@H](CC(=O)O)C(=O)N[C@@H](Cc1ccccc1)C(=O)N[C@H](C(=O)N[C@@H](CC(N)=O)C(=O)N[C@@H](Cc1c[nH]c2ccccc12)C(=O)N[C@@H](CC(C)C)C(=O)N[C@H](C(=O)N[C@@H](CCC(N)=O)C(=O)N[C@H](C(=O)N[C@@H](CCCCN)C(=O)N[C@H](C(=O)N[C@H](C(=O)N[C@@H](CCCCN)C(=O)O)[C@@H](C)O)[C@@H](C)CC)[C@@H](C)O)[C@@H](C)CC)[C@@H](C)CC)C(=O)O
B6: Compound no. 30 (peptide)
peptide: H[Aib]DGTFISDYK([γGlu-Decanoyl])T[Aib]LDNLAARDFINWLIQTKITD-OH
modifications: N-terminus assumed
SMILES: CCCCCCCCCC(=O)N[C@@H](CCC(=O)NCCCC[C@H](NC(=O)[C@H](Cc1ccc(O)cc1)NC(=O)[C@H](CC(=O)O)NC(=O)[C@H](CO)NC(=O)[C@@H](NC(=O)[C@H](Cc1ccccc1)NC(=O)[C@@H](NC(=O)CNC(=O)[C@H](CC(=O)O)NC(=O)C(C)(C)NC(=O)[C@@H](N)Cc1c[nH]cn1)[C@@H](C)O)[C@@H](C)CC)C(=O)N[C@H](C(=O)NC(C)(C)C(=O)N[C@@H](CC(C)C)C(=O)N[C@@H](CC(=O)O)C(=O)N[C@@H](CC(N)=O)C(=O)N[C@@H](CC(C)C)C(=O)N[C@@H](C)C(=O)N[C@@H](C)C(=O)N[C@@H](CCCNC(=N)N)C(=O)N[C@@H](CC(=O)O)C(=O)N[C@@H](Cc1ccccc1)C(=O)N[C@H](C(=O)N[C@@H](CC(N)=O)C(=O)N[C@@H](Cc1c[nH]c2ccccc12)C(=O)N[C@@H](CC(C)C)C(=O)N[C@H](C(=O)N[C@@H](CCC(N)=O)C(=O)N[C@H](C(=O)N[C@@H](CCCCN)C(=O)N[C@H](C(=O)N[C@H](C(=O)N[C@@H](CC(=O)O)C(=O)O)[C@@H](C)O)[C@@H](C)CC)[C@@H](C)O)[C@@H](C)CC)[C@@H](C)CC)[C@@H](C)O)C(=O)O

How the values were obtained:
[1] = target: T1, human glucose-dependent insulinotropic …; experiment: cell-based or functional assay
[2] = target: T2, human glucagon-like peptide-2 receptor; experiment: cell-based or functional assay

Binder | Efficacy GIPR [1] | Efficacy GLP-2R [2] | logEC50 GLP-2R [2]
B1 | 111% | 109% | 9
B2 | 108% | 91% | –
B3 | 110% | 91% | –
B4 | 102% | 23% | –
HXDGTFISDYKTILDNLAARDFINWLIQTKITK (Aib at 2; K(γGlu-C16) at 11; C-terminal -OH) [Compound no. 11] | 115% | 87% | –
B5 | 95% | 95% | –
H-H[Aib]DGTFISDYK([γGlu-Palmitoyl])TILDNLAARDFINWLIQTKGKKNDWKHNITQ-NH2 [Compound no. 14] | 101% | 114% | –
B6 | – | 81% | –
{C16 diacid}-H[Aib]EGTFISDYST[Aib]LDNLAAKDFINWLIQTKITKNDWKHNITQ-OH [Compound no. 43] | – | 73% | –

Reference: US20250304643A1 (BAINAN BIOTECH, published 2025)
